{"source": "paper PMC11536449", "key": {"CmRSM1-GST [1]": {"target": "T1, CmRSM1-GST (Cucumis melo (melon), UniProt A0A1S3CDK8 1-116)", "T1 sequence": "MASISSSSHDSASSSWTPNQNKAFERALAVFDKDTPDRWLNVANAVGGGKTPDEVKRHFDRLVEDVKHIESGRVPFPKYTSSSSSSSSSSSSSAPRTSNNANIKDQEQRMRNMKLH", "experiment": "EMSA"}, "CmRSM1-GST [2]": {"target": "T1, CmRSM1-GST", "experiment": "EMSA", "remark": "listed apart in the source"}}, "note": "Read-outs that look alike come from different tables or passages of the source."}
{"binder": "P3 probe (CmBr promoter, MRE motif) (dsDNA) DNA 1: ACTTAGTTTTGAGATCAAATAACTCCTTAGGTTAGTTAATCATTCATTGATTCAATCAA DNA 2: TTGATTGAATCAATGAATGATTAACTAACCTAAGGAGTTATTTGATCTCAAAACTAAGT", "values": [{"measurement": "binding result", "setting": "CmRSM1-GST [1]", "value": "no binding"}]}
{"binder": "P1 probe (CmBr promoter, Myb motif) (dsDNA) DNA 1: ACATTTACTTTTAGATGAAATTGTAACAGTTAGCTAAGTCGTTCACTTCGTTGAAATTA DNA 2: TAATTTCAACGAAGTGAACGACTTAGCTAACTGTTACAATTTCATCTAAAAGTAAATGT", "values": [{"measurement": "binding result", "setting": "CmRSM1-GST [2]", "value": "binds"}]}
{"binder": "P2 probe (CmBr promoter, MYB and MBS motifs) (dsDNA) DNA 1: GACAACAAATTTATAAGTAATTGTTCAACCAACTGAAAACGAGAAAAGTAAATATATCT DNA 2: AGATATATTTACTTTTCTCGTTTTCAGTTGGTTGAACAATTACTTATAAATTTGTTGTC", "values": [{"measurement": "binding result", "setting": "CmRSM1-GST [1]", "value": "no binding"}]}
